Entries after “also recorded” stand apart in the source; their conditions may differ.

Experimental findings from US20240166755A1, “CHIMERIC ANTIGEN RECEPTORS TARGETING CANCER” (University of Southern California, priority 2016, published 2024) are described below.

The assay deals with target cells expressing their respective target antigen. As to the kind of experiment: Jurkat-NFAT-GFP assay, co-culture with target cells expressing the respective target antigen (Table 28). To be noted: Jurkat-NFAT-GFP cells expressing the CAR; cell line(s) giving greater % GFP positive cells than parental.

B1: CD8SP-CD324-hSC10-17-(vL-vH)-Myc-BBz-T2A-PAC(052516-A07)[SEQ ID NO: 1555] (protein)
chain: MALPVTALLLPLALLLHAARPDVVMTQSPLSLPVTLGQPASISCRSSQSIVHSDGNTYLEWYQQRPGQSPRRLIYKVSNRFSGVPDRFSGSGSGTDFTLKISRVEAEDVGVYYCFQGSHAPWTFGGGTKVEIKGGGGSGGGGSGGGGSEVQLVESGGGLVQPGGSLRLSCAASGFTFSSYGMHWVRQAPGKGLEWVAYITTRSSTIYYADSVKGRFTISRDNAKNSLYLQMNSLRAEDTAVYYCTREPLTGYYAMDYWGQGTSVTVSSTREQKLISEEDLAKPTTTPAPRPPTPAPTIASQPLSLRPEACRPAAGGAVHTRGLDFACDIYIWAPLAGTCGVLLLSLVITLYCKRGRKKLLYIFKQPFMRPVQTTQEEDGCSCRFPEEEEGGCELRVKFSRSADAPAYQQGQNQLYNELNLGRREEYDVLDKRRGRDPEMGGKPRRKNPQEGLYNELQKDKMAEAYSEIGMKGERRRGKGHDGLYQGLSTATKDTYDALHMQALPPRSSGSGEGRGSLLTCGDVEENPGPHMTEYKPTVRLATRDDVPRAVRTLAAAFADYPATRHTVDPDRHIERVTELQELFLTRVGLDIGKVWVADDGAAVAVWTTPESVEAGAVFAEIGPRMAELSGSRLAAQQQMEGLLAPHRPKEPAWFLATVGVSPDHQGKGLGSAVVLPGVEAAERAGVPAFLETSAPRNLPFYERLGFTVTADVEVPEGPRTWCMTRKPGA
modifications: listed as DNA
Consider B1, for which the “Positive Cell Line on co-culture assay” value is given as “MDAMB-231”.

B2: CD8SP-DLL3-hSC16-13-(vL-vH)-Myc-BBz-T2A-PAC(052516-D07)[SEQ ID NO: 1584] (protein)
chain: MALPVTALLLPLALLLHAARPDIQMTQSPSSLSASVGDRVTITCSASSSVSYMYWYQQKPGKAPKLLIYLTSNLASGVPSRFSGSGSGTDFTLTISSLQPEDFATYYCQQWRSNPFTFGQGTKLEIKRGGGGSGGGGSGGGGSQITLKESGPTLVKPTQTLTLTCTFSGFSLSTSGMGVGWIRQPPGKALEWLAHIWWDDVKRYSPSLKSRLTITKDTSKNQVVLTMTNMDPVDTATYYCARIVSFDNDVVSAMDYWGQGTLVTVSSTREQKLISEEDLAKPTTTPAPRPPTPAPTIASQPLSLRPEACRPAAGGAVHTRGLDFACDIYIWAPLAGTCGVLLLSLVITLYCKRGRKKLLYIFKQPFMRPVQTTQEEDGCSCRFPEEEEGGCELRVKFSRSADAPAYQQGQNQLYNELNLGRREEYDVLDKRRGRDPEMGGKPRRKNPQEGLYNELQKDKMAEAYSEIGMKGERRRGKGHDGLYQGLSTATKDTYDALHMQALPPRSSGSGEGRGSLLTCGDVEENPGPHMTEYKPTVRLATRDDVPRAVRTLAAAFADYPATRHTVDPDRHIERVTELQELFLTRVGLDIGKVWVADDGAAVAVWTTPESVEAGAVFAEIGPRMAELSGSRLAAQQQMEGLLAPHRPKEPAWFLATVGVSPDHQGKGLGSAVVLPGVEAAERAGVPAFLETSAPRNLPFYERLGFTVTADVEVPEGPRTWCMTRKPGA
modifications: listed as DNA
Take B2: the “Positive Cell Line on co-culture assay” value is recorded as “LAN5, SKMEL31,; also recorded: SKMEL317”.
